From the supplement of paper PMC12783771 come the findings set out here.

The chains are these.
B1: library; a variant is named by its letters at X, in order (parent)
chain: MNIQIGELAKRTACPVVTIRFYEQEGLLPPPGRSRGNFRLYGEEHVERLQFIRHCRSLDMPLSDVRTLLSYRKRPDQDCGEVXMLLDEHIRQVESRIGALLELKHHLVELREACSGARPAQSCGILQXLSXCVCXTRGTTAHXSD

± gives the standard deviation of the averaged measurements.

Data set [1] covers variants of B1. Nature of the data set: sfGFP reporter fluorescence (15 h) (µM FITC); higher = higher leak. Conditions: library round: Round 2; ligand: none. An outline of the steps:
(§1)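 Readout was endpoint sfGFP fluorescence, converted to µM FITC through standard curves. Reactions were 1 μL of BL21 Star (DE3) PANOx-SP extract with pPbrR-sfGFP reporter, 30 μg/mL GamS and linear PbrR templates normalized to 5 nM, containing 1 µM lead chloride, 30 µM zinc acetate or no metal. Incubation lasted 15 hr at 30 °C, with up to three biological replicates.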

Data set [2] covers variants of B1. The experiment in a line: sfGFP reporter fluorescence (15 h) (µM FITC); higher = stronger transcriptional activation. Conditions: library round: Round 2. An outline of the steps: as §1

For MNIQIGELAKRTACPVVTIRFYEQEGLLPPPGRSRGNFRLYGEEHVERLQFIRHCRSLDMPLSDVRTLLSYRKRPDQDCGEVTMLLDEHIRQVESRIGALLELKHHLVELRIACSGARPAQSCGILQGLSDCVCATRGTTAHASD [TGDAA E112I], the sfGFP reporter fluorescence in data set [1] was 0.04637 ± 0.00034; in data set [2] (ligand: 1 µM Pb), 0.0525 ± 0.0024; in data set [2] (ligand: 30 µM Zn), 0.108 ± 0.0066.

In the case of MNIQIGELAKRTACPVVTIRFYEQEGLLPPPGRSRGNFRLYGEEHVERLQFIRHCRSLDMPLSDVRTLLSYRKRPDQDCGEVTMLLDEHIRQVESRIGALLELKHHLVLLREACSGARPAQSCGILQGLSDCVCPTRGTTAHRSD [TGDPR E109L], the sfGFP reporter fluorescence in data set [1] was 0.063 ± 0.0052; in data set [2] (ligand: 1 µM Pb), 0.114 ± 0.0072; in data set [2] (ligand: 30 µM Zn) it was 0.346 ± 0.039.

For MNIQIGELAKRTACPVVTIRFYEQEGLLPPPGRSRGNFRLYGEEHVERLQFIRHCRSLDMPLSDVRTLLSYRKRPDQDCGEVTMLLDEHIRQVESRIGALLELKHHLVELREACSGARPAQSCGILQGLSCCVCATRGTTAHPSD [TGCAP], the figures for the sfGFP reporter fluorescence in data set [1], in data set [2] (ligand: 1 µM Pb) and in data set [2] (ligand: 30 µM Zn) were 0.0461 ± 0.0022, 0.0657 ± 0.0026 and 0.0869 ± 0.005, respectively.

On to MNIQIGELAKRTACPVVTIRFYEQEGLLPPPGRSRGNFRLYGEEHVERLQFIRHCRSLDMPLSDVRTLLSYRKRPDQDCGEVNMLLDEHIRQVESRIGALLELKHHLVELREACGGARPAQSCGILQGLSTCPCDTRGTTAHPSD [NGTDP S115G V133P], for which the results for the sfGFP reporter fluorescence in data set [1], in data set [2] (ligand: 1 µM Pb) and in data set [2] (ligand: 30 µM Zn) were 0.0474 ± 0.0012, 0.0633 ± 0.00085 and 0.461 ± 0.052, respectively.

For MNIQIGELAKRTACPVVTIRFYEQEGLLPPPGRSRGNFRLYGEEHVERLQFIRHCRSLDMPLSDVRTLLSYRKRPDQDCGEVNMLLDEHIRQVESRIGALLELRHHLVELREACSGARPAQSCGILQGLSSCVCATRGTTAHASD [NGSAA K104R], the sfGFP reporter fluorescence in data set [1] stood at 0.0641 ± 0.0074; in data set [2] (ligand: 1 µM Pb), 0.097 ± 0.0024; in data set [2] (ligand: 30 µM Zn), 1.05 ± 0.14.

As for MNIQIGELAKRTACPVVTIRFYEQEGLLPPPGRSRGNFRLYGEEHVERLQFIRHCRSLDMPLSDVRTLLSYRKRPDQDCGEVTMLLDEHIRQVESRIGALLELKHHLLELREACSGARPAQSCGILQGLSDCVCDTRGTTAHMSD [TGDDM V108L], the sfGFP reporter fluorescence in data set [1] turned out to be 0.0605 ± 0.0032; in data set [2] (ligand: 1 µM Pb), 0.0645 ± 0.0026; in data set [2] (ligand: 30 µM Zn), 0.209 ± 0.025.

MNIQIGELAKRTACPVVTIRFYEQEGLLPPPGRSRGNFRLYGEEHVERLQFIRHCRSLDMPLSDVRTLLSYRKRPDQDCGEVNMLLDEHIRQVESRIGALLELKHHLVELREACSGARPAQSCGILQSLSACVCATRGTTAHPSD [NSAAP]: the figures for the sfGFP reporter fluorescence in data set [1], in data set [2] (ligand: 1 µM Pb) and in data set [2] (ligand: 30 µM Zn) were 0.0758 ± 0.0055, 0.162 ± 0.0077 and 1.67 ± 0.15, respectively.

For MNIQIGELAKRTACPVVTIRFYEQEGLLPPPGRSRGNFRLYGEEHVERLQFIRHCRSLDMPLSDVRTLLSYRKRPDQDCGEVTMLLDEHIRQVESRIGALLELKHHLVELREACSGARPAQSCGILQGLSHCVCATRGTTAHPSD [TGHAP], the sfGFP reporter fluorescence in data set [1] worked out at 0.0614 ± 0.0048; in data set [2] (ligand: 1 µM Pb), 0.0828 ± 0.0035; in data set [2] (ligand: 30 µM Zn), 0.394 ± 0.061.

Consider MNIQIGELAKRTACPVVTIRFYEQEGLLPPPGRSRGNFRLYGEEHVERLQFIRHCRSLDMPLSDVRTLLSYRKRPDQDCGEVSMLLDEHIRQVESRIGALLELKHHLLELREACSGARPAQSCGILQGLSDCVCDTRGTTAHWSD [SGDDW V108L], for which the sfGFP reporter fluorescence amounted to 0.0515 ± 0.0023 in data set [1], 0.0672 ± 0.0033 in data set [2] (ligand: 1 µM Pb) and 0.247 ± 0.031 in data set [2] (ligand: 30 µM Zn).

On to MNIQIGELAKRTACPVVTIRFYEQEGLLPPPGRSRGNFRLYGEEHVERLQFIRHCRSLDLNLSNVRTLLSYRKRPDQDCGEVNMLLDEHIRQVESRIGALLELKHHLVELREACSGARPAQSCGILQGLSDCVCDTRGTTAHPSD [NGDDP M60L P61N D64N], for which the sfGFP reporter fluorescence in data set [1] worked out at 0.291 ± 0.025; in data set [2] (ligand: 1 µM Pb) it was 0.582 ± 0.11; in data set [2] (ligand: 30 µM Zn), 2.53 ± 0.24.

Take MNIQIGELAKRTACPVVTIRFYEQEGLLPPPGRSRGNFRLYGEEHVERLQFIRHCRSLDMPLSDVRTLLSYRKRPDQDCGEVNMLLDEHIRQVESRIGALLELKHHLVELREACSGARPAQSCAILQLASDCVCDTRGTTAHPSD [NLDDP G124A L129A]: the sfGFP reporter fluorescence was 0.0419 ± 0.0017 in data set [1], 0.0398 ± 0.0017 in data set [2] (ligand: 1 µM Pb) and 0.0426 ± 0.0023 in data set [2] (ligand: 30 µM Zn).

In the case of MNIQIGELAKRTACPVVTIRFYEQEGLLPPPGRSRGNFRLYGEEHVERLQFIRHCRSLDMPLSDVRTLLSYRKRPDQDCGEVNMLLDEHIRQVESRIGALLELKHHCVELREACSGARPAQSCGILQMLSDCVCATRGTTAHKSD [NMDAK L107C], the sfGFP reporter fluorescence in data set [1] stood at 2.86 ± 0.17; in data set [2] (ligand: 1 µM Pb) it was 3.46 ± 0.15; in data set [2] (ligand: 30 µM Zn), 3.68 ± 0.19.

MNIQIGELAKRTACPVVTIRFYEQEGLLPPPGRSRGNFRLYGEEHVERLQFIRHCRSLDMPLSDVRTLLSYRKRPDQDCGEVNMLLDEHIRQVESRIGALLELKHHLVELREACSGARPAQSCGILQGLSSCVCPTRGTTAHASD [NGSPA]: the values for the sfGFP reporter fluorescence in data set [1], in data set [2] (ligand: 1 µM Pb) and in data set [2] (ligand: 30 µM Zn) were 0.0677 ± 0.013, 0.114 ± 0.019 and 0.999 ± 0.13, respectively.

Regarding MNIQIGELAKRTACPVVTIRFYEQEGLLPPPGRSRGNFRLYGEEHVERLQFIRHCRSLDLPLSDVRTLLSYRKRPDQDCGEVNMLLDEHIRQVESRIGALLELKHHLVELREACSGARPAQSCGILQMLSDCVCDTRGTTAHASD [NMDDA M60L], the sfGFP reporter fluorescence in data set [1] came to 0.805 ± 0.062; in data set [2] (ligand: 1 µM Pb), 1.88 ± 0.22; in data set [2] (ligand: 30 µM Zn), 3.33 ± 0.49.
